Experimental data from US20250304643A1 (BAINAN BIOTECH, published 2025).
[ ]: non-standard residue; d: D form. The star is where a group is joined. C16 diacid = O=C(O)CCCCCCCCCCCCCCC(=O)*; Palmitoyl = CCCCCCCCCCCCCCCC(=O)*; Aib = CC(C)(N)C(=O)O

B1: Compound no. 16 (peptide)
peptide: Palmitoyl-HADGTFISDYSTILD[Aib]LAARDFINWLIQTKITKNDWKHNITQ-OH
B2: Compound no. 19 (peptide)
peptide: {C16 diacid}-H[Aib]EGTFISDYST[Aib]LDNLAARDFINWLIQTKITK-OH
SMILES: CC[C@H](C)[C@H](NC(=O)[C@H](Cc1ccccc1)NC(=O)[C@H](CC(=O)O)NC(=O)[C@H](CCCNC(=N)N)NC(=O)[C@H](C)NC(=O)[C@H](C)NC(=O)[C@H](CC(C)C)NC(=O)[C@H](CC(N)=O)NC(=O)[C@H](CC(=O)O)NC(=O)[C@H](CC(C)C)NC(=O)C(C)(C)NC(=O)[C@@H](NC(=O)[C@H](CO)NC(=O)[C@H](Cc1ccc(O)cc1)NC(=O)[C@H](CC(=O)O)NC(=O)[C@H](CO)NC(=O)[C@@H](NC(=O)[C@H](Cc1ccccc1)NC(=O)[C@@H](NC(=O)CNC(=O)[C@H](CCC(=O)O)NC(=O)C(C)(C)NC(=O)[C@H](Cc1c[nH]cn1)NC(=O)CCCCCCCCCCCCCCC(=O)O)[C@@H](C)O)[C@@H](C)CC)[C@@H](C)O)C(=O)N[C@@H](CC(N)=O)C(=O)N[C@@H](Cc1c[nH]c2ccccc12)C(=O)N[C@@H](CC(C)C)C(=O)N[C@H](C(=O)N[C@@H](CCC(N)=O)C(=O)N[C@H](C(=O)N[C@@H](CCCCN)C(=O)N[C@H](C(=O)N[C@H](C(=O)N[C@@H](CCCCN)C(=O)O)[C@@H](C)O)[C@@H](C)CC)[C@@H](C)O)[C@@H](C)CC
B3: Compound no. 21 (peptide)
peptide: {C16 diacid}-H[Aib]EGTFISDYST[Aib]LDKLAARDFINWLIQTKITK-OH
SMILES: CC[C@H](C)[C@H](NC(=O)[C@H](Cc1ccccc1)NC(=O)[C@H](CC(=O)O)NC(=O)[C@H](CCCNC(=N)N)NC(=O)[C@H](C)NC(=O)[C@H](C)NC(=O)[C@H](CC(C)C)NC(=O)[C@H](CCCCN)NC(=O)[C@H](CC(=O)O)NC(=O)[C@H](CC(C)C)NC(=O)C(C)(C)NC(=O)[C@@H](NC(=O)[C@H](CO)NC(=O)[C@H](Cc1ccc(O)cc1)NC(=O)[C@H](CC(=O)O)NC(=O)[C@H](CO)NC(=O)[C@@H](NC(=O)[C@H](Cc1ccccc1)NC(=O)[C@@H](NC(=O)CNC(=O)[C@H](CCC(=O)O)NC(=O)C(C)(C)NC(=O)[C@H](Cc1c[nH]cn1)NC(=O)CCCCCCCCCCCCCCC(=O)O)[C@@H](C)O)[C@@H](C)CC)[C@@H](C)O)C(=O)N[C@@H](CC(N)=O)C(=O)N[C@@H](Cc1c[nH]c2ccccc12)C(=O)N[C@@H](CC(C)C)C(=O)N[C@H](C(=O)N[C@@H](CCC(N)=O)C(=O)N[C@H](C(=O)N[C@@H](CCCCN)C(=O)N[C@H](C(=O)N[C@H](C(=O)N[C@@H](CCCCN)C(=O)O)[C@@H](C)O)[C@@H](C)CC)[C@@H](C)O)[C@@H](C)CC
B4: Compound no. 20 (peptide)
peptide: {C16 diacid}-H[Aib]DGTFISDYST[Aib]LDALAARDFIEWLIQTKITK-OH
SMILES: CC[C@H](C)[C@H](NC(=O)[C@H](Cc1ccccc1)NC(=O)[C@H](CC(=O)O)NC(=O)[C@H](CCCNC(=N)N)NC(=O)[C@H](C)NC(=O)[C@H](C)NC(=O)[C@H](CC(C)C)NC(=O)[C@H](C)NC(=O)[C@H](CC(=O)O)NC(=O)[C@H](CC(C)C)NC(=O)C(C)(C)NC(=O)[C@@H](NC(=O)[C@H](CO)NC(=O)[C@H](Cc1ccc(O)cc1)NC(=O)[C@H](CC(=O)O)NC(=O)[C@H](CO)NC(=O)[C@@H](NC(=O)[C@H](Cc1ccccc1)NC(=O)[C@@H](NC(=O)CNC(=O)[C@H](CC(=O)O)NC(=O)C(C)(C)NC(=O)[C@H](Cc1c[nH]cn1)NC(=O)CCCCCCCCCCCCCCC(=O)O)[C@@H](C)O)[C@@H](C)CC)[C@@H](C)O)C(=O)N[C@@H](CCC(=O)O)C(=O)N[C@@H](Cc1c[nH]c2ccccc12)C(=O)N[C@@H](CC(C)C)C(=O)N[C@H](C(=O)N[C@@H](CCC(N)=O)C(=O)N[C@H](C(=O)N[C@@H](CCCCN)C(=O)N[C@H](C(=O)N[C@H](C(=O)N[C@@H](CCCCN)C(=O)O)[C@@H](C)O)[C@@H](C)CC)[C@@H](C)O)[C@@H](C)CC
B5: Compound no. 22 (peptide)
peptide: {C16 diacid}-H[Aib]DGTFISDYST[Aib]LDKLAARDFIEWLIQTKITK-OH
SMILES: CC[C@H](C)[C@H](NC(=O)[C@H](Cc1ccccc1)NC(=O)[C@H](CC(=O)O)NC(=O)[C@H](CCCNC(=N)N)NC(=O)[C@H](C)NC(=O)[C@H](C)NC(=O)[C@H](CC(C)C)NC(=O)[C@H](CCCCN)NC(=O)[C@H](CC(=O)O)NC(=O)[C@H](CC(C)C)NC(=O)C(C)(C)NC(=O)[C@@H](NC(=O)[C@H](CO)NC(=O)[C@H](Cc1ccc(O)cc1)NC(=O)[C@H](CC(=O)O)NC(=O)[C@H](CO)NC(=O)[C@@H](NC(=O)[C@H](Cc1ccccc1)NC(=O)[C@@H](NC(=O)CNC(=O)[C@H](CC(=O)O)NC(=O)C(C)(C)NC(=O)[C@H](Cc1c[nH]cn1)NC(=O)CCCCCCCCCCCCCCC(=O)O)[C@@H](C)O)[C@@H](C)CC)[C@@H](C)O)C(=O)N[C@@H](CCC(=O)O)C(=O)N[C@@H](Cc1c[nH]c2ccccc12)C(=O)N[C@@H](CC(C)C)C(=O)N[C@H](C(=O)N[C@@H](CCC(N)=O)C(=O)N[C@H](C(=O)N[C@@H](CCCCN)C(=O)N[C@H](C(=O)N[C@H](C(=O)N[C@@H](CCCCN)C(=O)O)[C@@H](C)O)[C@@H](C)CC)[C@@H](C)O)[C@@H](C)CC
B6: Compound no. 17 (peptide)
peptide: {C16 diacid}-H[Aib]DGTFISDYST[Aib]LDNLAARDFINWLIQTKITK-OH
SMILES: CC[C@H](C)[C@H](NC(=O)[C@H](Cc1ccccc1)NC(=O)[C@H](CC(=O)O)NC(=O)[C@H](CCCNC(=N)N)NC(=O)[C@H](C)NC(=O)[C@H](C)NC(=O)[C@H](CC(C)C)NC(=O)[C@H](CC(N)=O)NC(=O)[C@H](CC(=O)O)NC(=O)[C@H](CC(C)C)NC(=O)C(C)(C)NC(=O)[C@@H](NC(=O)[C@H](CO)NC(=O)[C@H](Cc1ccc(O)cc1)NC(=O)[C@H](CC(=O)O)NC(=O)[C@H](CO)NC(=O)[C@@H](NC(=O)[C@H](Cc1ccccc1)NC(=O)[C@@H](NC(=O)CNC(=O)[C@H](CC(=O)O)NC(=O)C(C)(C)NC(=O)[C@H](Cc1c[nH]cn1)NC(=O)CCCCCCCCCCCCCCC(=O)O)[C@@H](C)O)[C@@H](C)CC)[C@@H](C)O)C(=O)N[C@@H](CC(N)=O)C(=O)N[C@@H](Cc1c[nH]c2ccccc12)C(=O)N[C@@H](CC(C)C)C(=O)N[C@H](C(=O)N[C@@H](CCC(N)=O)C(=O)N[C@H](C(=O)N[C@@H](CCCCN)C(=O)N[C@H](C(=O)N[C@H](C(=O)N[C@@H](CCCCN)C(=O)O)[C@@H](C)O)[C@@H](C)CC)[C@@H](C)O)[C@@H](C)CC
B7: Compound no. 15 (peptide)
peptide: Palmitoyl-HADGTFISDYSTILELLAARDFINWLIQTKITKNDWKHNITQ-OH
B8: Compound no. 23 (peptide)
peptide: {C16 diacid}-H[Aib]DGTFISDYST[Aib]LDKLAARDFINWLIETKITK-OH
SMILES: CC[C@H](C)[C@H](NC(=O)[C@H](Cc1ccccc1)NC(=O)[C@H](CC(=O)O)NC(=O)[C@H](CCCNC(=N)N)NC(=O)[C@H](C)NC(=O)[C@H](C)NC(=O)[C@H](CC(C)C)NC(=O)[C@H](CCCCN)NC(=O)[C@H](CC(=O)O)NC(=O)[C@H](CC(C)C)NC(=O)C(C)(C)NC(=O)[C@@H](NC(=O)[C@H](CO)NC(=O)[C@H](Cc1ccc(O)cc1)NC(=O)[C@H](CC(=O)O)NC(=O)[C@H](CO)NC(=O)[C@@H](NC(=O)[C@H](Cc1ccccc1)NC(=O)[C@@H](NC(=O)CNC(=O)[C@H](CC(=O)O)NC(=O)C(C)(C)NC(=O)[C@H](Cc1c[nH]cn1)NC(=O)CCCCCCCCCCCCCCC(=O)O)[C@@H](C)O)[C@@H](C)CC)[C@@H](C)O)C(=O)N[C@@H](CC(N)=O)C(=O)N[C@@H](Cc1c[nH]c2ccccc12)C(=O)N[C@@H](CC(C)C)C(=O)N[C@H](C(=O)N[C@@H](CCC(=O)O)C(=O)N[C@H](C(=O)N[C@@H](CCCCN)C(=O)N[C@H](C(=O)N[C@H](C(=O)N[C@@H](CCCCN)C(=O)O)[C@@H](C)O)[C@@H](C)CC)[C@@H](C)O)[C@@H](C)CC

Legend:
[1] = target: T1, human glucose-dependent insulinotropic polypeptide receptor (human, UniProt P48546 22-466); experiment: cell-based or functional assay
T1 sequence (looked up): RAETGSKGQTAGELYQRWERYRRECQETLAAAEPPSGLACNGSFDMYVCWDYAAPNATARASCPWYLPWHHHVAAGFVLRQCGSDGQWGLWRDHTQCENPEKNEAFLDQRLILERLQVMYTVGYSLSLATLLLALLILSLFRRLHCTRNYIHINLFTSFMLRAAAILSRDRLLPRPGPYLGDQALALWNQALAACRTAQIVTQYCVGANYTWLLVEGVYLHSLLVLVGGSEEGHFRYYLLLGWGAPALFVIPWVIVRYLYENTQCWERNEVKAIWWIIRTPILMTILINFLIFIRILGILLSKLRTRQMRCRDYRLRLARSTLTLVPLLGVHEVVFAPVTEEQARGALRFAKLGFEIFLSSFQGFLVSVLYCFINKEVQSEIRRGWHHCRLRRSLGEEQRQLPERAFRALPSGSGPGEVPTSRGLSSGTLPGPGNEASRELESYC

[2] = target: T2, human glucagon-like peptide-2 receptor (human, UniProt O95838 1-553); experiment: cell-based or functional assay
T2 sequence (looked up): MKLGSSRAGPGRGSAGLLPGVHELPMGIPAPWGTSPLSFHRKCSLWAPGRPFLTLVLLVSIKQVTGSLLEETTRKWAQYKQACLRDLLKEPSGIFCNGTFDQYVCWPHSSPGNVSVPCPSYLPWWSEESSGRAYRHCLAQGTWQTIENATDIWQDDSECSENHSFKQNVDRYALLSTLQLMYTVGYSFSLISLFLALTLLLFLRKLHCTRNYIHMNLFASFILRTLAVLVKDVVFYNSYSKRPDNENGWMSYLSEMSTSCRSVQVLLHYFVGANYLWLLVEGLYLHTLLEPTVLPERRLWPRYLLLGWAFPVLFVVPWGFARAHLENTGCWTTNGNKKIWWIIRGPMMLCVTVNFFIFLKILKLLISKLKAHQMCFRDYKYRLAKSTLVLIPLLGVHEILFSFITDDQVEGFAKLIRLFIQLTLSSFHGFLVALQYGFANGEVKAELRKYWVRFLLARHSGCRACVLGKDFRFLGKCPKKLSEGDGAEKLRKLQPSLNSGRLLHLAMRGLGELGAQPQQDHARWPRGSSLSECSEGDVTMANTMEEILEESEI

Binder | Efficacy GIPR [1] | Efficacy GLP-2R [2] | logEC50 GLP-2R [2]
B1 | 99% | 64% | 
B2 | 98% | 81% | 
B3 | 86% | 58% | 
B4 | 93% | 88% | 
B5 | 91% | 95% | 
B6 | 98% | 90% | 
B7 | 106% | 70% | 
B8 | 107% | 86% | 8.8
